Target: T1, GST-IFT54 (mouse, UniProt Q149C2 1-625)
T1 sequence (looked up): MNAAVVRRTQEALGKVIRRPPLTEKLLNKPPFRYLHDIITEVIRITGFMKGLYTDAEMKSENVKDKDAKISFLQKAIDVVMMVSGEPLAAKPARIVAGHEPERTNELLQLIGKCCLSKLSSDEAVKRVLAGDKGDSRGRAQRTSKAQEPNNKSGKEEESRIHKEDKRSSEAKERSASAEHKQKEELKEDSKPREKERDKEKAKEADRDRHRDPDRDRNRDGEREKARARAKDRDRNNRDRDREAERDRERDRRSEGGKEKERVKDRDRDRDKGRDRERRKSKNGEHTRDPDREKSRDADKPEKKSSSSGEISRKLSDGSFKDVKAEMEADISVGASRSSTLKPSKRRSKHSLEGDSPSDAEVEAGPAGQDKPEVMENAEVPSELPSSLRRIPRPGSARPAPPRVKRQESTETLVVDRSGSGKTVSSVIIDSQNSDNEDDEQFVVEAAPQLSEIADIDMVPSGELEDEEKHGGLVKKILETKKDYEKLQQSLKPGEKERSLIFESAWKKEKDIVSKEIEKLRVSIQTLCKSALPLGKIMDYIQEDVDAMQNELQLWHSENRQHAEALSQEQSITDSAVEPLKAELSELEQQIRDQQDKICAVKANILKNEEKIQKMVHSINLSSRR
Assay: pull-down

binding result: binds
B1: purified, untagged IFT20 (natural protein, mouse, UniProt Q61025-1 1-132, looked up)
chain: MAKDILGEAGLHFDELNKLRVLDPEVTQQTVELKEECKDFVDKIGQFQKIVGGLIELVDQLAKEAENEKMKAIGARNLLKSIAKQREAQQQQLQALIAEKKTQLERYRVEYEALCKVEAEQNEFIDQFIFQK
